A word on the Kd: it is a measure of binding affinity in units of concentration. The koff is the first-order rate constant of dissociation. Usually kon stands for a measure of how fast the partners come together.

The text below walks through data of patent US20130236458A1 (AbbVie / Abbott, published 2013).

In test [1] the target is T1, Recombinant Human IL-13 (human, UniProt P35225 35-146, limits assumed).
T1 construct: bought reagent
The test can be described thus: SPR (Biacore). Put shortly:
(§1)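 Antibodies or DVD-Ig captured on anti-mouse IgG (Fcγ) CM5 surface; antigen injected at 10–200 nM in HBS-EP, pH 7.4, 25 °C, 25 µL/min. kon and koff from global 1:1 Langmuir fit; KD = koff/kon.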

Test [2] addresses T2, Recombinant Human IL-17 (human, UniProt Q16552 20-155, limits assumed).
T2 construct: bought reagent; also called IL-17A
T2 sequence (looked up): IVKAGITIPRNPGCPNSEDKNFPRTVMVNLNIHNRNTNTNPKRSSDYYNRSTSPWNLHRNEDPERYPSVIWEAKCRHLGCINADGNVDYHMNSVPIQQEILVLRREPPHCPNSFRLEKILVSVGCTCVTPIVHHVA
The test can be described thus: SPR (Biacore). In outline: as §1

In test [3] the target is T1, Recombinant Human IL-13. As to the kind of experiment: cell-based or functional assay.
Test [4] concerns the target T2, Recombinant Human IL-17. The test can be described thus: cell-based or functional assay.

T1 sequence (P35225 35-146 limits assumed): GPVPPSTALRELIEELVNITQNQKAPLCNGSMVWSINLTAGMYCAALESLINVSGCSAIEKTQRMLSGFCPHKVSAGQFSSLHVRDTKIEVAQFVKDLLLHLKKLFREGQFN

B1: DVD2191 (bispecific antibody)
VH: EVQLVQSGAEVKKPGSSVKVSCKASGGSFGGYGIGWVRQAPGQGLEWMGGITPFFGFADYAQKFQGRVTITADESTTTAYMELSGLTSDDTAVYYCARDPNEFWNGYYSTHDFDSWGQGTTVTVSSASTKGPEVQLVQSGAEVKKPGASVKVSCKASGYTFTSYWMHWVRQAPGQGLEWIGNINPKGGSNIYNEKFQGRVTMTRDTSISTAYMELSRLRSDDTAVYYCARLDYFGDSFDLWGQGTTVTVSS
VL: EIVLTQSPDFQSVTPKEKVTITCRASQDIGSELHWYQQKPDQPPKLLIKYASHSTSGVPSRFSGSGSGTDFTLTINGLEAEDAGTYYCHQTDSLPYTFGPGTKVDIKRTVAAPDIQMTQSPSSLSASVGDRVTITCRASQGIRNYLNWYQQKPGKAPKLLIYYASNLEVGVPSRFSGSGSGTDYTLTISSLQPEDFATYYCQQDNRFPYTFGGGTKVEIKR
notes: DVD-Ig; also called DVD2191H; DVD2191L
Regarding B1, in test [1], the Kd is 0.17 nM, the koff was found to be 4.4e-05 s⁻¹ and the kon turned out to be 260000 M⁻¹ s⁻¹. For the same molecule, in test [2], the Kd is 0.0046 nM, the koff came to 1.2e-05 s⁻¹ and the kon amounted to 2.5e+06 M⁻¹ s⁻¹. The “C-Terminal VD IL13 Neutralization Assay IC50” value in test [3] worked out at 0.165 nM. Moreover, the “N-Terminal VD IL17 Neutralization Assay IC50” value in test [4] worked out at 0.013 nM.

B2: DVD2190 (bispecific antibody)
VH: EVQLVQSGAEVKKPGASVKVSCKASGYTFTSYWMHWVRQAPGQGLEWIGNINPKGGSNIYNEKFQGRVTMTRDTSISTAYMELSRLRSDDTAVYYCARLDYFGDSFDLWGQGTTVTVSSASTKGPEVQLVQSGAEVKKPGSSVKVSCKASGGSFGGYGIGWVRQAPGQGLEWMGGITPFFGFADYAQKFQGRVTITADESTTTAYMELSGLTSDDTAVYYCARDPNEFWNGYYSTHDFDSWGQGTTVTVSS
VL: DIQMTQSPSSLSASVGDRVTITCRASQGIRNYLNWYQQKPGKAPKLLIYYASNLEVGVPSRFSGSGSGTDYTLTISSLQPEDFATYYCQQDNRFPYTFGGGTKVEIKRTVAAPEIVLTQSPDFQSVTPKEKVTITCRASQDIGSELHWYQQKPDQPPKLLIKYASHSTSGVPSRFSGSGSGTDFTLTINGLEAEDAGTYYCHQTDSLPYTFGPGTKVDIKR
notes: DVD-Ig; also called DVD2190H; DVD2190L
As for B2, in test [1], the Kd is 0.021 nM, the koff worked out at 5.7e-05 s⁻¹ and the kon was 2.6e+06 M⁻¹ s⁻¹. Further, in test [2], the Kd was 0.038 nM, the koff turned out to be 3.4e-06 s⁻¹ and the kon was determined as 89000 M⁻¹ s⁻¹. Further, in test [3], the “N-Terminal VD IL13 Neutralization Assay IC50” value was 0.087 nM. Moreover, the “C-Terminal VD IL17 Neutralization Assay IC50” value in test [4] came out at 0.061 nM.

B3: DVD2192 (bispecific antibody)
VH: EVQLVQSGAEVKKPGASVKVSCKASGYTFTSYWMHWVRQAPGQGLEWIGNINPKGGSNIYNEKFQGRVTMTRDTSISTAYMELSRLRSDDTAVYYCARLDYFGDSFDLWGQGTTVTVSSASTKGPEVQLVQSGAEVKKPGSSVKVSCKASGGSFGGYGIGWVRQAPGQGLEWMGGITPFFGFADYAQKFQGRVTITADESTTTAYMELSGLTSDDTAVYYCARDPNEFWNGYYSTHDFDSWGQGTTVTVSS
VL: DIQMTQSPSSLSASVGDRVTITCRASQGIRNYLNWYQQKPGKAPKLLIYYASNLEVGVPSRFSGSGSGTDYTLTISSLQPEDFATYYCQQDNRFPYTFGGGTKVEIKRTVAAPSVFIFPPEIVLTQSPDFQSVTPKEKVTITCRASQDIGSELHWYQQKPDQPPKLLIKYASHSTSGVPSRFSGSGSGTDFTLTINGLEAEDAGTYYCHQTDSLPYTFGPGTKVDIKR
notes: DVD-Ig; also called DVD2192H; DVD2192L
In the case of B3, in test [1], the Kd worked out at 0.035 nM, the koff turned out to be 5.1e-05 s⁻¹ and the kon is 1.5e+06 M⁻¹ s⁻¹. In addition, in test [2], the Kd is less than 0.0038 nM, the koff is less than 1e-06 s⁻¹ and the kon is 260000 M⁻¹ s⁻¹. For the same molecule, the “N-Terminal VD IL13 Neutralization Assay IC50” value in test [3] turned out to be 0.056 nM. In test [4], the “C-Terminal VD IL17 Neutralization Assay IC50” value was 0.015 nM.
